One block for each binder: values may come before it. Ends that are not written are not given here. * marks the point of attachment. Biotin = O=C1N[C@H]2[C@H](CS[C@H]2CCCCC(=O)*)N1; ethylene glycol linker = not defined here
How the values were obtained:
[1] = target: T1, GFP with a C-terminal BC2 tag (GFPBC2T) (human, UniProt P42212 1-238 = GFP); assay: binding studies with GFPBC2T
T1 construct: Expressed in E. coli; also called C-terminally BC2-tagged GFP

[2] = target: T2, eGFP-PCNA with C-terminal BC2 tag (eGFP-PCNABC2T) (human, UniProt P12004 1-261); assay: Western blot probed with BC2-NbAF488
T2 construct: Expressed in HEK293T or HeLa cells; not shown: eGFP

[3] = target: T3, mCherry-Vimentin (untagged) (UniProt P08670 1-466); assay: Western blot probed with BC2-NbAF488
T3 construct: Control without the BC2 tag; not shown: mCherry fluorescent protein

[4] = target: T4, mCherry-Vimentin with C-terminal BC2 tag (mCherry-VIMBC2T) (human, UniProt P08670 1-466); assay: Western blot probed with BC2-NbAF488
T4 construct: Expressed in HEK293T or HeLa cells; also called mCherry-VimentinBC2T; not shown: mCherry fluorescent protein

[5] = target: T2, eGFP-PCNA with C-terminal BC2 tag …; assay: immunocytochemistry on fixed HeLa cells expressing GFP-PCNABC2T
Protocol: After 24 h, cells were washed once with PBS and fixed with 4% w/v paraformaldehyde (PFA) in PBS for 15 min at RT or with methanol for 15 min at −20° C. After removal of the fixative and washing twice with PBS, cells were blocked and permeabilized with 3% w/v BSA and 0.1% v/v Triton X-100 in PBS for 1 h at RT. […] Unbound nanobody and DAPI were removed by washing 3 times with a mixture of PBS and 6% v/v 5 M NaCl in H₂O. Images of FIG. 4 b and FIG. 10 b were acquired with an Image Xpress micro XL system. Confocal images of FIG. 10 a were acquired with an ImageXpress Micro Confocal.

[6] = target: T5, BC2T Q11E library peptide (human); assay: peptide library pulldown on immobilized Nb, LC-MS of supernatant; ratio vs GFP-Nb control (1 = not captured, 0 = captured)
T5 peptide: Ac-PDRKAAVSHWEQ-NH2
Source text: (§1) In total, 12 different BC2T libraries displaying all 20 proteinogenic amino acids in one single position of the peptide were used in immunoprecipitation experiments. […] The direct comparison with the GFP-Nb made it possible to determine the quantitative degree of peptide capture without the need of labeled standards. […] The more peptide was captured the more the value approximates 0. It was not possible to discriminate between isoleucine (I) and leucine (L) peptide versions since these peptides are isobaric.
(§2) To investigate the binding specificity of the BC2T and derived mutants peptide libraries for each amino acid position of the sequence […] (SEQ ID NO:4) were synthesized with acetyl and amide groups located at the N-termini or C-termini respectively (Intavis). […] Incubations were performed in 300 μl PBS/0.01% CHAPS for 1 h on a HulaMixer (Life Technologies). Subsequent to a centrifugation step 10 μl supernatant were analyzed in a LC-MS procedure. Peptides were separated using an UltiMate3000 RSLCnano System (Thermo Scientific), composed of a C18 PepMap100μ-Precolumn (300 μm×5 mm; particle size: 5 μm; pore size: 100 Å—Thermo Scientific) and a C18 analytical column (Acclaim Rapid Separation LC (RSLC) Column: 150 mm×5 mm; particle size: 2.2 μm; pore size: 100 Å—Thermo Scientific). A step gradient was applied starting at 8% and ending after 20 min at 30% eluent B (80% acetonitrile, 20% H₂O, 0.1% formic acid).

[7] = target: T6, BC2T Q12D library peptide (human); assay: as above
T6 peptide: Ac-PDRKAAVSHWQD-NH2
Source text: as §1, §2

BC2T H9D library peptide = target: T7, BC2T H9D library peptide (human); assay: as above
T7 peptide: Ac-PDRKAAVSDWQQ-NH2
Source text: as §1, §2

[8] = target: T8, BC2T W10D library peptide (human); assay: as above
T8 construct: also called BC2TW10X: D
T8 peptide: Ac-PDRKAAVSHDQQ-NH2
Source text: as §1, §2

BC2T H9E library peptide = target: T9, BC2T H9E library peptide (human); assay: as above
T9 peptide: Ac-PDRKAAVSEWQQ-NH2
Source text: as §1, §2

BC2T S8E library peptide = target: T10, BC2T S8E library peptide (human); assay: as above
T10 construct: also called BC2TS8X: E
T10 peptide: Ac-PDRKAAVEHWQQ-NH2
Source text: as §1, §2

[9] = target: T11, BC2T W10E library peptide (human); assay: as above
T11 construct: also called BC2TW10X: E
T11 peptide: Ac-PDRKAAVSHEQQ-NH2
Source text: as §1, §2

BC2T S8D library peptide = target: T12, BC2T S8D library peptide (human); assay: as above
T12 construct: also called BC2TS8X: D
T12 peptide: Ac-PDRKAAVDHWQQ-NH2
Source text: as §1, §2

[10] = target: T13, BC2T Q12E library peptide (human); assay: as above
T13 peptide: Ac-PDRKAAVSHWQE-NH2
Source text: as §1, §2

[11] = target: T14, BC2T Q11D library peptide (human); assay: as above
T14 peptide: Ac-PDRKAAVSHWDQ-NH2
Source text: as §1, §2

[12] = target: T15, pTag1 peptide (biotinylated) (reading uncertain); assay: BLI, biotinylated peptide on streptavidin biosensor, BC2-Nb in solution, 1:1 model
T15 construct: Immobilised on streptavidin biosensors
T15 peptide: {Biotin-ethylene glycol linker}-PDRVRAVSHWSS
Protocol: (§3) Biolayer interferometry (BLI)-based affinity measurements were used to assess two improved variations of the original BC2T sequence (a: […], pTag1 SEQ ID NO:33; b: […], pTag2 SEQ ID NO:34) in comparison with the original BC2T sequence (c: BC2T SEQ ID NO:4).
(§4) The shaking rate was 1200 rpm. As a reference, each peptide was also incubated with BLItz buffer only according to the protocol above. […] The sensor was regenerated by sequential dips into 10 mM glycine pH 2.0 and BLItz buffer (repeated three times). Raw data were analysed using the software BLItz Pro (fortéBio) and a 1:1 binding model.

[13] = target: T16, BC2T peptide (biotinylated) (human, reading uncertain); assay: as above
T16 construct: Immobilised on streptavidin biosensors; also called original BC2T; wildtype BC2T
T16 peptide: {Biotin-ethylene glycol linker}-PDRKAAVSHWQQ
Protocol: as §3, §4

[14] = target: T17, pTag2 peptide (biotinylated) (reading uncertain); assay: as above
T17 construct: Immobilised on streptavidin biosensors
T17 peptide: {Biotin-ethylene glycol linker}-ADRVRAVSHWSS
Protocol: as §3, §4

T2 sequence (P12004 other isoform, or with tags, fused parts or gaps limits assumed): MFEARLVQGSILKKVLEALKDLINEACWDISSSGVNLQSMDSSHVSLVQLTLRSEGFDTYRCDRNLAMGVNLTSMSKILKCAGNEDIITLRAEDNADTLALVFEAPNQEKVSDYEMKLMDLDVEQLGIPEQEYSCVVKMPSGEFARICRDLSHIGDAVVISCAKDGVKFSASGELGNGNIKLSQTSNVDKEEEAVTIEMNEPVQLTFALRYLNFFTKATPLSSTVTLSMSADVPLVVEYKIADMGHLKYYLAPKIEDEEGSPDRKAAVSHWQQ
T4 sequence (P08670 other isoform, or with tags, fused parts or gaps): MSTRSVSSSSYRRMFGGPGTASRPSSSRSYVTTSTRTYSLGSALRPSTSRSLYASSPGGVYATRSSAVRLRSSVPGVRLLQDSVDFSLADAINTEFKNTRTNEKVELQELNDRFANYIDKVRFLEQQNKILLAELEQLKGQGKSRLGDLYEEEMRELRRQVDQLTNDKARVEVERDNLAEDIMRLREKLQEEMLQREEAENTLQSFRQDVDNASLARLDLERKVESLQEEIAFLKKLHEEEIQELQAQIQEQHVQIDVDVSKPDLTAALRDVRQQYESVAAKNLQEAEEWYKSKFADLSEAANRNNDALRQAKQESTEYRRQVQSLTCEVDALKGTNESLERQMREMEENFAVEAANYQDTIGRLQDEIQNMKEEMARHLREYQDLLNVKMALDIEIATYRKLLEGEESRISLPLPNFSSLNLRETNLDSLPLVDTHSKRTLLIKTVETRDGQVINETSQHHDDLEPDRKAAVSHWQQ
T3 sequence (P08670 whole entry): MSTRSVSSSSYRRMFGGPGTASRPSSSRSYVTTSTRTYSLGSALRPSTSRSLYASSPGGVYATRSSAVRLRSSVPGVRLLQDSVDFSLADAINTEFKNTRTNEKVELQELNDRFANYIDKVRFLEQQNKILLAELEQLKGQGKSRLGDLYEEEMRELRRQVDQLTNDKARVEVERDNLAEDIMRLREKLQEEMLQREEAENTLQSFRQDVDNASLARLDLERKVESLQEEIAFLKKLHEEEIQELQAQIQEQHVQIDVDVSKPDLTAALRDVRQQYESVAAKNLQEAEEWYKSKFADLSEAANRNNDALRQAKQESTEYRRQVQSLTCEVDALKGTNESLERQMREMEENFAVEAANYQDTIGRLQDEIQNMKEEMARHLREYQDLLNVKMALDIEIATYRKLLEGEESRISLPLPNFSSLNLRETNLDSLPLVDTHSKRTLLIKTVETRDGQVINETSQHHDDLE

B2: BC2-NbAF488 (VHH)
VHH: QVQLVESGGGLVQPGGSLTLSCTASGFTLDHYDIGWFRQAPGKEREGVSCINNSDDDTYYADSVKGRFTIFMDNAKDTVYLQMNSLKPEDTAIYYCAEARGCKRGRYEYDFWGQGTQVTVSS
modifications: AlexaFluor488 coupled chemically with the NHS-activated dye (sites not given)
notes: also called BC2-Nb488; fluorescently labeled BC2-Nb (AlexaFluor488); not shown: C-terminal 6xHis-tag added by the pHEN6 vector
binding result [2]: binds
binding result [3]: no binding
binding result [4]: binds

B4: BC2-Nb(R106S) (VHH)
VHH: QVQLVESGGGLVQPGGSLTLSCTASGFTLDHYDIGWFRQAPGKEREGVSCINNSDDDTYYADSVKGRFTIFMDNAKDTVYLQMNSLKPEDTAIYYCAEARGCKRGSYEYDFWGQGTQVTVSS
notes: Headlock mutant; immobilized on beads in the library pulldown
ratio [6]: 0.5
ratio [7]: 0.9
ratio (BC2T H9D library peptide): 0.5
ratio [8]: 1
ratio (BC2T H9E library peptide): 0.6
ratio (BC2T S8E library peptide): 1
ratio [9]: 1.1
ratio (BC2T S8D library peptide): 0.9
ratio [10]: 0.7
ratio [11]: 0.6

B5: BC2 nanobody (BC2-Nb) (VHH)
VHH: QVQLVESGGGLVQPGGSLTLSCTASGFTLDHYDIGWFRQAPGKEREGVSCINNSDDDTYYADSVKGRFTIFMDNAKDTVYLQMNSLKPEDTAIYYCAEARGCKRGRYEYDFWGQGTQVTVSS
notes: Alpaca VHH, 122 aa; in solution at 5-50 nM in the BLI assay
Kd [12]: 0.7 nM
koff [12]: 6.8e-05 s⁻¹
kon [12]: 92000 M⁻¹ s⁻¹
Kd [13]: 2.6 nM
koff [13]: 0.0005 s⁻¹
kon [13]: 190000 M⁻¹ s⁻¹
Kd [14]: 1.9 nM
koff [14]: 0.0002 s⁻¹
kon [14]: 110000 M⁻¹ s⁻¹

Second part, the binder after the results:

binding result [1]: no binding
B1: BC2-NbC50A_C102S (VHH)
VHH: QVQLVESGGGLVQPGGSLTLSCTASGFTLDHYDIGWFRQAPGKEREGVSAINNSDDDTYYADSVKGRFTIFMDNAKDTVYLQMNSLKPEDTAIYYCAEARGSKRGRYEYDFWGQGTQVTVSS
notes: Mutant without the additional disulfide bond between CDR3 and FR2

binding result [5]: binds
B3: BC2-NbATTO647 (VHH)
VHH: QVQLVESGGGLVQPGGSLTLSCTASGFTLDHYDIGWFRQAPGKEREGVSCINNSDDDTYYADSVKGRFTIFMDNAKDTVYLQMNSLKPEDTAIYYCAEARGCKRGRYEYDFWGQGTQVTVSS
modifications: Atto647 coupled chemically with the NHS-activated dye (sites not given)
notes: also called fluorescently labeled BC2-Nb (ATTO647); not shown: C-terminal 6xHis-tag added by the pHEN6 vector

— patent publication US20170137467A1 (CHROMOTEK, published 2017)
